B1: TPR t1 (parent)
chain: GACCAAUCUGCCCUCAGAGCUCGAGAACAUCUUCGGAUGCAGAGGAGGCAGGCUUCGGUGGCGCGAUAGCGCCAACGUCCUCAACCUCCAAUGCAUCCCACCACAUGAUGAUGCCUGAAGAGCCUUGGUUUUUUG

In the series the parent is B1. Nature of the series: polymerase ribozyme fitness, log enrichment relative to wild type (log ratio); higher = more active; in vitro selection for triplet polymerase activity. In short, it runs like this: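 In triplicate, a single round of in vitro selection was run on each mutant library, PCR-built and transcribed, covering one subunit of a heterodimeric triplet polymerase ribozyme. Frozen incubation at −7 °C followed annealing with a biotinylated primer, partner subunit and triplets, and extended constructs were then gel-excised, streptavidin-captured and taken through RT-PCR. Fitness is the logarithm of genotype enrichment over wild-type enrichment, from inverse-variance-weighted replicate averages of Illumina-sequenced inputs and outputs. […] only genotypes with ≥10 input reads and ≥1 read per output were kept.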
Consider A46U C53U A84C C88U, for which the “polymerase ribozyme fitness (log ratio)” value was -1.14. Under G47U G61U G110A stands -3.87; under G47U G57A, -1.73; under G47A C79U, -1.59.

For the variant A46U G47A G127C, the “polymerase ribozyme fitness (log ratio)” value is -3.12. Under A46U A66G G77A stands -1.99; under G45C C89U, -1.92.

Consider G47U A95C G128C, for which the “polymerase ribozyme fitness (log ratio)” value is -4.33.

On to G47A U55A, for which the “polymerase ribozyme fitness (log ratio)” value is -0.45. Take A46G C72G C85G: the “polymerase ribozyme fitness (log ratio)” value was -4.41. Under G47U A50U U59C C73A U78A U133A stands -2.31; under A46U U109A, -6.04. For the variant G45U G63U G113A, the “polymerase ribozyme fitness (log ratio)” value is -3.01. Under G45U C72U U87A stands -1.19; under G45U A46C G127C, -2.82.

Take G47A G120A U126A: the “polymerase ribozyme fitness (log ratio)” value is -1.73. For G47A C123A, the “polymerase ribozyme fitness (log ratio)” value was -0.394. Under G47A C123U stands -0.261. Under G45A U59G G60A A100U stands -2.28; under A46C C62U C86U C97U A111U C124U, -5.27. On to A46U C70G C85U C104G, for which the “polymerase ribozyme fitness (log ratio)” value is -7.09.

As to A46U A111C C124G U131A U132C, the “polymerase ribozyme fitness (log ratio)” value was -0.582. Under G47U G58C C82U C86U stands -1.04. Under G47U C80A G113A stands -6.73; under A46U G57C A84U C114U, -3.16; under G45C C115A U130C, -2.49. Under G47C A111G C123U stands -3.06; under A46U A74U A91G, -3.52.

As to G47U C53A U129G, the “polymerase ribozyme fitness (log ratio)” value is -2.44. For the variant A46U C114U, the “polymerase ribozyme fitness (log ratio)” value was -2.76. For A46C G47A C53A G60A C73G, the “polymerase ribozyme fitness (log ratio)” value was -1.61. Under A46U C49U C72A A121C stands 0.996. Under A46U C115U stands -2.18; under A46U G48A, -2.28; under G47C G58A, -1.77. Take G47A G60U C101A: the “polymerase ribozyme fitness (log ratio)” value was -0.894. Under G45U G61A stands -2.11; under G45U G61C, -2.72; under G47A G61A C85A C98A, -6.7.

With G47U C73G C82U, the “polymerase ribozyme fitness (log ratio)” value is -2.22. Under G45U C73U C79A stands -2.93; under G45U G60U, -0.287; under A46G G47U G120U U132A, -1.09. Under G45U G52A C62U U96G stands -2.4; under G47A G51A, -4.37; under A46U U92C A100U G113C, -4.52.

Turning to G47C C72G, the “polymerase ribozyme fitness (log ratio)” value is -2.9. Under G45U U106A U129C stands -1.68; under G47U G93U, -2.97.

As for G45C G93U A121U, the “polymerase ribozyme fitness (log ratio)” value was -1.16. Under G45C G48U G52U C76U stands -4.18; under G47U C98U, -4.36. Under A46U G52U G71U C123A stands -2.41.

With G45U U112A, the “polymerase ribozyme fitness (log ratio)” value amounted to 0.359. As to A46G G113U, the “polymerase ribozyme fitness (log ratio)” value is -2.95. Under A46C C56G C70A stands -5.02.

For A46C A100U U131G, the “polymerase ribozyme fitness (log ratio)” value is -1.22.

As to G47U C53U C79A, the “polymerase ribozyme fitness (log ratio)” value is -4.4.

As for A46U G117A U133G, the “polymerase ribozyme fitness (log ratio)” value is -2.73.

With G47A G71U C123A, the “polymerase ribozyme fitness (log ratio)” value was -0.967. Under G47U C115A stands -2.9; under A46U A66C C123G C124A, 0.0849; under A46C C70U C101U, -1.31. Under G45U C85G G122A stands -3.83. Under A46C U87A A91C U96A stands -2.01. With G45U C64U, the “polymerase ribozyme fitness (log ratio)” value is -0.713. Regarding G45U C123U, the “polymerase ribozyme fitness (log ratio)” value was -0.952. For A46U C64U A90U U96A U106A U131A, the “polymerase ribozyme fitness (log ratio)” value is -3.76.

In the case of G47A A50G C115A, the “polymerase ribozyme fitness (log ratio)” value was -1.8.

As to G47U C70U C82G G120U C124G G127A, the “polymerase ribozyme fitness (log ratio)” value was -0.105.

Take G45C A100G G120A U133A: the “polymerase ribozyme fitness (log ratio)” value is -2.23.

For the variant G47A C72A C86A U96G G117U, the “polymerase ribozyme fitness (log ratio)” value is -4.69. Under G45U C64U U81A stands -2.88. Under G47U C72U U78C G113C stands -3.65; under G45A U59A C104U, -0.336. Under G45C C70U A83C stands -1.86; under G45U C114U, -3.17.

For the variant G45A G120C, the “polymerase ribozyme fitness (log ratio)” value was 0.183. For G47A U133A, the “polymerase ribozyme fitness (log ratio)” value is -1.33. On to G45U C56A G128C, for which the “polymerase ribozyme fitness (log ratio)” value is -5.66.

As to G47U C72G U81A, the “polymerase ribozyme fitness (log ratio)” value was -3.46. Under G45C C72U A90U G128C stands -4.85; under G47U C80G U87A C101U C123A G127A, -5.76.

The values above are taken from the RNAGym collection of RNA variant scans (doi:10.1073/pnas.2313332121).
